These results are taken from the nanobody polyreactivity screen of Harvey et al. (2022).

The series is described as follows: yeast display, Sf9 membrane polyspecificity reagent, FACS + sequencing; frameworks hold sequencing errors. In outline:
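In a synthetic yeast display library (Saccharomyces cerevisiae BJ5465), nanobody expression was induced with galactose for 36–48 hours. FACS gates were set low and high (top ~1%) using anti-HA fluorescence for expression and streptavidin fluorescence for binding of the Sf9 membrane reagent. Each polyreactivity label is drawn from the gate of origin.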
In the case of “QFQLEESGGGLVQAGGSLRLSCAASGPIFSYNAMGLSRQATGKERELVARINWSSGRTYYADSVKGRFTISRDNAKNTVYLQMNSLKPEDTAVYYCNRVSRGPVGGYYWGQGTQVTESS”, the “polyreactivity (PSR sort gate)” value is listed as “high polyreactivity”.

As for “QFQLEESGGGLVQAGGSLRLSCAASGSTFGDYAMGWYRQAPGKERVLVAAINFSDGSTYYADSVKGRFTISRDNAKNTVYLQMNSLKPEDSAVYYCAKQGYLVWSGWRWYDYWGQGTQGTVSS”, the “polyreactivity (PSR sort gate)” value was “low polyreactivity”. Turning to “QFQLEESRGGLVQAGGSLRLSCAASGRIFDLYAMGWYRQAPGKETELVATISGSGGSTYYADSVKGRFTISRDNAKNTVYLQMNSLKPEDTAVYYCAAVSVSSWYDYWGQGTQVTVSS”, the “polyreactivity (PSR sort gate)” value is “low polyreactivity”. In the case of “QFQLLESGGGLVHAAGSLRLSSAASVSNFLSNAMGWYRQAPGKETELVAAITTSGTSTFYADSVKGRFTSSRDNAKNTVYLHINSLTPEDTEVYCAKDYLPYLHFVAPSTGDYDYWGQGTQVTVSS”, the “polyreactivity (PSR sort gate)” value is “low polyreactivity”. Regarding “QFQLLESGGGLVQAAGSLRLSCAASGGIFRNYAMGWYRKAPGKERELVAAITSSGTSTYYADSVNGRFTISRDNAKNTVYLQMNSLKPEDTAVYYFAADVTARYDYWGQGTQVTVSS”, the “polyreactivity (PSR sort gate)” value is on record as “high polyreactivity”. Under “QFQLQESGGGLVQAGGTLRLSCAASGSIFYVYGKGWYRQAPGKERELVAGINAGTNTNYADSVRGRFTISRDNAKNTVHLQMNSQKPVDTAVYYCAADGNGYQAHEYWGQGTQVTVSS” stands “high polyreactivity”. As for “QFQLVDSGRGLVQAGGSLRVSCAASGITFAYYAMGWYRQAPGKERELVAAISRSGGGTYYADSVKGRFTISRDNAKNPVYLQMNSLKPEDTAVYYCNKDYPYYYAGDGRFDYWGQGTQVTVSS”, the “polyreactivity (PSR sort gate)” value is reported as “high polyreactivity”. Under “QFQLVDSRGGLVQAGGSLRLSCAASGAIFGGYAMGWYRTAPGKARELVAGSTRSGGSTYYADSVKGRFTISRDNPKNTVYLQMNSLKPEDTAVYYCAVEIQFYRSPRIVRSYDYWGHGTQVTVSS” stands “low polyreactivity”; under “QFQLVDSRRGLVQAGGSLRVSCAASGSTFYIYAMGWSRQAPGKERELVARISGSGGSTYYADSVKGRFTISRDNAKNTVYLQMNSLKPEDTAVYYCAADDIYKYYQYYAFPYYRYDDWGQGTQVTVSS”, “low polyreactivity”. Consider “QFQLVESGGCLVQAGCSLRLSCAASGFIIFSNAMGLYRQAPGKERELVAAISRIGVSTFYADSVKGRLTISRDNAKNTVYLQMNSLKPEDTAVYYCNKSNPDYDGLAIHAFDYWGQGTQVTVSS”, for which the “polyreactivity (PSR sort gate)” value was “low polyreactivity”. Under “QFQLVESGGGFVQAGGSLRLSCAASGRTFYPYAMGLYRQAPGKERELVAAISSSGGSTYYADSVKGRFTISRDNAKNTVYLQMNSLKPDDTAVYYCAAVASKYKYTGGMDYWGQGTQVTVSS” stands “high polyreactivity”. The entry for “QFQLVESGGGILQAGGSLRLSCAASGFIFSSYAMGWYRQAPGKERELVAAISKRGGSTYYADSVKGRFTISRDNAKNTVYLQMNSLKPEDTAVYYCARGSYPYRSFWLTSDYWGQVTQVTVSS” is “high polyreactivity”; for “QFQLVESGGGIVQAGGSLRLSCAASGFTFVYYAMGWYRQAPGKERQLVAAITRSAGSTYYADSVKGRFTISRDNAKNTVYLQMNSLKPEDTAVYYCAALNSRYSKAQRMDYWGQGTQVTVSS” it is “low polyreactivity”. As for “QFQLVESGGGLDQAGGSLRLSCAASGSIFYYNAMGWYRQAPGKERELVAAIDLNDGITYYADSVKGRFTISRDNAKNTVYLQMNSLKPEDTAVYYCAADSYYFLYDSWGQGTQVTVSS”, the “polyreactivity (PSR sort gate)” value was “high polyreactivity”. In the case of “QFQLVESGGGLDQAGGSLRLTCAASGLTIRWYAMGWYRQAPGKERELVAAIRWSGGSTYYADSVKGRFTISRDNAKNTVYLQMNSLKPEDTALYYCAARFLGYQSGTERDYWGQGTQVTVSS”, the “polyreactivity (PSR sort gate)” value is “high polyreactivity”. Regarding “QFQLVESGGGLLQAGGSLRLSCADSGFIFCEYAMGWYRQAPGKERELVAAITWSGGRTYYADSVKGRFTISRDNAKNTVYLQMNSLKTEDTAVYYCSAYGSFWYAGFGYWGQGTQVTVSS”, the “polyreactivity (PSR sort gate)” value is listed as “low polyreactivity”.

Consider “QFQLVESGGGLVPAGGSLRLSCAASGRIFTGNAMGWSRQAPGKERELVASITYSDGSTYYADSVKGRFTISRDNATNTVYLKMNSLKPEDTAVYYCAADIRWGQGTQVTVSS”, for which the “polyreactivity (PSR sort gate)” value is “low polyreactivity”. The entry for “QFQLVESGGGLVQAGASLRLSCAASGSTFVRYAMGWYRQAPGKERDLVAAITWTGGITYYADSVKGRFTISRDNAKNTVYLHMNSLKPEDTAVYYCIAEQKQYEKSYDYWGQGTQVTVSS” is “low polyreactivity”.

Turning to “QFQLVESGGGLVQAGGRLRLSCAASGVIFSYYAMGCYRQAPGKERELVAAISSSGSRTYYADSVKGRFTISRDNAKNTVYLQMNRLKPEDTAVYYCAARGAAKYGYWGQGTQVTVSS”, the “polyreactivity (PSR sort gate)” value is recorded as “high polyreactivity”. For the sequence “QFQLVESGGGLVQAGGRLRLSCAASRSTFVLYDMGWYRQAPGKERELVAAISRSGDSTYYADSVKGRYTISRDNAKNTVYLQMNSLKPEDTAVYYCAAKRRISTGMDYWGQGTQVTVSS”, the “polyreactivity (PSR sort gate)” value is on record as “high polyreactivity”. As to “QFQLVESGGGLVQAGGSLRLSCAASGFIFSNNAMGWYRQAPGKDRELVAAISKSGGGTSYADSVKGRFTISRDNAKNTVYLQMNSLKPDDTAVYYCAKEWRKKTDYDYWGQGTQVTVSS”, the “polyreactivity (PSR sort gate)” value was “high polyreactivity”.

As to “QFQLVESGGGLVQAGGSLRLSCAASGFIFYKYAMGGYRQAPGKERELVAAISSGGSPYYADSVKGRFTISRDNAKNTVYLQMNSLKPEDTAVYYCNKVYRSYRSGFYGGDYWGQGTQVTVSS”, the “polyreactivity (PSR sort gate)” value was “high polyreactivity”. Consider “QFQLVESGGGLVQAGGSLRLSCAASGFIIKFYAMGLYRQAPGKERELVATITFSSGTTYYADSVKGRFTISRDTAKNTVYLQLNSLKPEDTAVYYCAAERGVDDSARNGDYDYWGQGTQVTVSS”, for which the “polyreactivity (PSR sort gate)” value was “low polyreactivity”. As for “QFQLVESGGGLVQAGGSLRLSCAASGFTFDFYAMGWYRQAPGKERELVAAISKNDGTTYYADSVKGRFTISRDNAKNTVYLQMNSLKQEDTAVYYCAAPNWRDYYSSGQGTQVTVSS”, the “polyreactivity (PSR sort gate)” value is given as “low polyreactivity”. Take “QFQLVESGGGLVQAGGSLRLSCAASGFTFDGYAMGWYRQAPGKERELVAAISDSGDSTYYADSVKGRFTISRDNAKITVYLQMNSLKPEDTAVYYCAAGLGYYWSDYFAYDYWGQGTQVTVSS”: the “polyreactivity (PSR sort gate)” value was “low polyreactivity”.

For “QFQLVESGGGLVQAGGSLRLSCAASGFTFPYNGMGWYRQAPGKERELVAAISYGGGGKYYADSVKGRFTISRDNAKNTVYLQMNSLKPEDTAVYYCATDDPLSQINEQGMDYWGQGTQVTVSS”, the “polyreactivity (PSR sort gate)” value was “low polyreactivity”.

Consider “QFQLVESGGGLVQAGGSLRLSCAASGGTLYIYAMGWYRKAPGKERELVAAIRGRGGSTYADSVKGRFTISRDNAKNTVYLQMNSLKPVDTAVYYCAAYARQRSNTIYYDYWGQGTQVTVSS”, for which the “polyreactivity (PSR sort gate)” value was “high polyreactivity”. Under “QFQLVESGGGLVQAGGSLRLSCAASGIFVGYTMGWYRQAPGKEREFVAAIRWTDGSTYYADSVKGRFTISRDNAKNTVYLQMNSLKPEDTAVYYCAADSHDPARYYYGDEVEDEYWGQGTQVTVSS” stands “low polyreactivity”. With “QFQLVESGGGLVQAGGSLRLSCAASGIIFGAYVMGWYRQAPGKERELVAVISWSSTSTYYADSVKGRFTISRDNAKNTVYLQMNSLKPEDTAVYYCNARYLRRGDYWGQGTQVTVSS”, the “polyreactivity (PSR sort gate)” value is listed as “low polyreactivity”.

Consider “QFQLVESGGGLVQAGGSLRLSCAASGIIFTTYVMGWYRQAPGKERELVAAISRGGRTYYADSVKGRFTSSRDNAKNTVYLQMNSLKPEDTAVYYCARVAYKGYGEDDYWGQGTQVTVSS”, for which the “polyreactivity (PSR sort gate)” value is on record as “high polyreactivity”. With “QFQLVESGGGLVQAGGSLRLSCAASGIIFVSYAMGGYIQAPGKETEFVAGINWNGGSTYYADSVKGRFTISRDNAKNTVYLQMNSLKPEDTAVYYCNAENYRVRQRSSVKYDYWGHGTQVTVSS”, the “polyreactivity (PSR sort gate)” value is recorded as “low polyreactivity”. The entry for “QFQLVESGGGLVQAGGSLRLSCAASGITFQYYAMGWYRQAPGKERDFVAAISWRSGRTYYADSVKGRFTISRDNAKNTVYLQMNSLKPEDTEVYYCAAVVHIQRSTRDYWGQGTQVTVSS” is “high polyreactivity”; for “QFQLVESGGGLVQAGGSLRLSCAASGLTFKYYGMGWYRQAPGKERELVATISSGGRTNYADSVKGRFTISRDNAKNTVYLQMNSLKPEDTEVYYCNRPRWYGGSPYYYWGQGTQVTVSS” it is “high polyreactivity”; for “QFQLVESGGGLVQAGGSLRLSCAASGRIFFSNAMGWYRQAPGKERELVASITGGDDTNYADSVKGRFTISRDNAKNSVYLQMNSLKPEDTAFYYCAARAIPSYRWVYRFAPKYDYWGQGTQVTVSS” it is “low polyreactivity”. “QFQLVESGGGLVQAGGSLRLSCAASGRIFRYYSMGCYIQSPGKERELVAAITRGGSTNYADSVKGRFTISGDNANNNVYLQMNSLKPEDSAVYYCAVRGCYTWPTYNYWGHGTQVTVSS”: the “polyreactivity (PSR sort gate)” value is given as “high polyreactivity”. The entry for “QFQLVESGGGLVQAGGSLRLSCAASGRIWWNAKGWYRQAPGNEREMVAAIRWSGGIKRYADSVKGRFTISRDNAKNTVYLQMNSLKREDTAVYYCDARLGGSIRSKFDYWGQGTQVTVSS” is “high polyreactivity”; for “QFQLVESGGGLVQAGGSLRLSCAASGRTFWWYAMGWYRQAPGKERELVAAITSRGTTYYADSVKGRFTISRDNAKNTVYLQMNSLKPEDTAVYYCNAVQATRYTDYDYWGQGTQVTVSS” it is “high polyreactivity”. Turning to “QFQLVESGGGLVQAGGSLRLSCAASGSIFKYNAMGWYRQAPGKEREFVAAISSSSGNTYYADSVKGRFTISRDNAKNTLYFQMNSLKPEDTAVYYCAADASRPRIPEMYYWGQGTQVTVSS”, the “polyreactivity (PSR sort gate)” value is on record as “high polyreactivity”. On to “QFQLVESGGGLVQAGGSLRLSCAASGSIFLAYDMGWYRQAPGKERELVAGITSGGTTYYADSVKGRFTISRDNAKNTVYLQMNSLKPADTAVYYCAALLYTPYYYWGQGTQVTVSS”, for which the “polyreactivity (PSR sort gate)” value is listed as “low polyreactivity”. The entry for “QFQLVESGGGLVQAGGSLRLSCAASGSIFRGYTMGWYRQAPGKERELVAAISWSGGSTYYADSVKGRFTISRDNAKNTVYLQMNSLKPEDTAVYFCAAGDYYHRIFLWYDYWGQGTQVTVSS” is “low polyreactivity”; for “QFQLVESGGGLVQAGGSLRLSCAASGSIFYTYVMGWYRQAPGKERELVAVISWSSTSTYYADSVKGRFTISRDNAKNTVYLQMNSLKPEDTAVYYCAAGVHRYRPGHGYDDGGYYWGQGTQVTVSS” it is “low polyreactivity”.
